Biological target: T1, amylin receptor (nucleus accumbens membranes prepared from rat brain) (rat), P32214
T1 chain 1: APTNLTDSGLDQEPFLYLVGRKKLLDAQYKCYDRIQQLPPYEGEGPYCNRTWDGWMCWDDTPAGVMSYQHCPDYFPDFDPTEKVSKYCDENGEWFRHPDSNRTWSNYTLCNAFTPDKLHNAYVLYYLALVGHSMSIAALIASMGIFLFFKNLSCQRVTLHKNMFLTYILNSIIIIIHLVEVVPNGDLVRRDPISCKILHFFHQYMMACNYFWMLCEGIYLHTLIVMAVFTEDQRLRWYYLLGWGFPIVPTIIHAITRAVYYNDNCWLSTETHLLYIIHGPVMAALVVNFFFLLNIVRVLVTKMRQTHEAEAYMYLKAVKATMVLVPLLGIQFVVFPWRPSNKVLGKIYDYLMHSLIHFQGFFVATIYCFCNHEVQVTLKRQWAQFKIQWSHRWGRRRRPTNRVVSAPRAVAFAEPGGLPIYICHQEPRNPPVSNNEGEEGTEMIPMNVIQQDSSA
T1 chain 2: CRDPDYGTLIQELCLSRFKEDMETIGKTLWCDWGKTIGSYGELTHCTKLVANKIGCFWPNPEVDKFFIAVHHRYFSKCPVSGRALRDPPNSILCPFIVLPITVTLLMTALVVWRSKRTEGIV
Experiment: radioligand displacement, 125I-rat amylin, rat nucleus accumbens membranes

CGNLSTCMLGTYTQDFNKFHTFPQTAIGVGAP (modifications not checked) [r/h Calcitonin]
IC50: 100 nM

— US20080207501A1
